In patent US20170204142A1 one finds Kd, koff and kon data, which are given here for three substances.

For experiment [1], the target named is H1HA10 (influenza A virus H1N1 A/Puerto Rico/8/34) (UniProt A4GCI6).
Experiment [2] addresses full-length H1N1 A/Puerto Rico/8/34 recombinant HA (rHA) (influenza A virus H1N1 A/Puerto Rico/8/34) (UniProt P03452).

The Kd is the free concentration of one partner at which half of the binding sites on the other are occupied at equilibrium, for simple one-to-one binding. Usually koff stands for a measure of how fast the partners let go of each other. Broadly, the kon is the rate constant with which the complex forms. As for CR6261 IgG (antibody), in experiment [1], the Kd was 315 nM, the dissociation rate constant (koff) was determined as 0.00785 s⁻¹ and the kon is 24900 M⁻¹ s⁻¹. In addition, in experiment [2], the Kd is 8.9 nM, the koff worked out at 0.00258 s⁻¹ and the kon is 289000 M⁻¹ s⁻¹.
FI6v3-scFv: in experiment [2], the Kd came out at 8.8 nM, the koff is 0.00216 s⁻¹ and the kon amounted to 245000 M⁻¹ s⁻¹.
F10-scFv: in experiment [2], the Kd is 2.9 nM, the koff was 0.00121 s⁻¹ and the kon was 415000 M⁻¹ s⁻¹.
